Assay results: patent US20140341881A1 (DERMADIS, published 2014)
Positions count from the first letter of the chain named. Each block holds one binder with its values, some of them ahead of it.

How the values were obtained:
[1] = target: T1, human neutrophil elastase (HNE) (human, UniProt P08246 30-247, limits assumed); test: residual enzyme activity against [I]o/[E]o, fluorogenic substrate
T1 sequence (looked up): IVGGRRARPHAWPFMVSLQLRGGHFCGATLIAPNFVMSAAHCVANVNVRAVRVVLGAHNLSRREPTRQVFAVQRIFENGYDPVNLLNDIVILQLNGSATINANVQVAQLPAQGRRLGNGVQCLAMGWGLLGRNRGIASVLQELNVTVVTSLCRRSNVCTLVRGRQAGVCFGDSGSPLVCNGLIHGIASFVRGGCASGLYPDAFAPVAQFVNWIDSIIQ

[2] = target: T2, human plasma kallikrein (PK) (human, UniProt P03952 20-638); test: as above
[3] = target: T3, human chymotrypsin (Chtr) (human, UniProt P17538 19-263); test: as above
human kallikrein 2 (hK2) [4] = target: T4, human kallikrein 2 (hK2) (human, UniProt P20151 25-261); test: as above
T4 construct: two preparations treated as one molecule; also called kallikrein hK2

human kallikrein hK1 = human kallikrein hK1 (human, UniProt P06870 25-262); test: cell-based or functional assay
[5] = target: T1, human neutrophil elastase (HNE); test: cell-based or functional assay
[6] = target: T5, urokinase plasminogen activator (uPA) (UniProt P00749 21-431, limits assumed); test: cell-based or functional assay
[7] = target: T2, human plasma kallikrein (PK); test: cell-based or functional assay
[8] = target: T3, human chymotrypsin (Chtr); test: cell-based or functional assay
human kallikrein 2 (hK2) [9] = target: T4, human kallikrein 2 (hK2); test: cell-based or functional assay
[10] = target: T1, human neutrophil elastase (HNE); test: progress curve, pseudo-first order, fluorogenic substrate
Experimental: (§1) Under these conditions, a fixed amount of enzyme (2 nM) was mixed with different concentrations of inhibitor (0-800 nM) and an excess of substrate (10 μM). Each reaction was made in reaction buffer (50 mM Tris pH 7.5, 150 mM NaCl, 0,05% Triton X-100, 0.01% BSA) at 25° C. for 45 min and the rate of product formation was measured using a FLₓ800 fluorescence 96-well microplate reader (Biotek, USA). In this model, inhibition is considered to be irreversible over the course of reaction and the progress of enzyme activity is expressed by product formation (P), beginning at a rate (vz) and is inhibited over time (t) at a first-order rate (kobs), rate constant that is dependent only on inhibitor concentration.

[11] = target: T2, human plasma kallikrein (PK); test: as above
Experimental: as §1

[12] = target: T3, human chymotrypsin (Chtr); test: as above
Experimental: as §1

human kallikrein 2 (hK2) [13] = target: T4, human kallikrein 2 (hK2); test: as above
Experimental: as §1

[14] = target: T6, human kallikrein 14 (hK14) (human, UniProt Q9P0G3 25-251, limits assumed); test: progress curve
T6 construct: range counted on GenBank AAK48524 (printed), which may differ from the UniProt numbering; also called recombinant hK14
T6 sequence (looked up): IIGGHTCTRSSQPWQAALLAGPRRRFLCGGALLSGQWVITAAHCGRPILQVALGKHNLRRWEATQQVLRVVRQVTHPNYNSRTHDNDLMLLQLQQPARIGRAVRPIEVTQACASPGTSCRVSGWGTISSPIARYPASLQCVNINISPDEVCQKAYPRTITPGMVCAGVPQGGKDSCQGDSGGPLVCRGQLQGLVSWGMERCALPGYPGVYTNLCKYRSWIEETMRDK

[15] = target: T6, human kallikrein 14 (hK14); test: residual hK14 activity after 4 h at 37 C against [I0]/[E0]
Experimental: (§2) SI values of rAAT, rACT, and their variants were determined with hK14 incubating the protease with varying concentrations of inhibitor. After an incubation of 4 hours at 37° C. in reaction buffer (50 mM Tris, pH 7.5, 150 mM NaCl, 0.05% Triton X-100, 0.01% BSA), the residual activity was detected by the addition of fluorescent substrate (Boc-Val-Pro-Arg-AMC). Fluorescence was measured with excitation at 340 nm (±15) and emission at 485 nm (±10) in black 96 well plates using a microplate fluorescence reader FLₓ800 (Bio-Tek Instruments, Inc.). The SI value corresponds to the abscissa intercept of the linear regression analysis of fractional velocity (velocity of inhibited enzyme reaction (vi)/velocity of uninhibited enzyme reaction (v₀)) vs. the molar ratio of the inhibitor to enzyme ([I₀]/[E₀]).

human kallikrein 8 (hK8) = target: T7, human kallikrein 8 (hK8) (human, UniProt O60259 33-260); test: cell-based or functional assay
T7 sequence (looked up): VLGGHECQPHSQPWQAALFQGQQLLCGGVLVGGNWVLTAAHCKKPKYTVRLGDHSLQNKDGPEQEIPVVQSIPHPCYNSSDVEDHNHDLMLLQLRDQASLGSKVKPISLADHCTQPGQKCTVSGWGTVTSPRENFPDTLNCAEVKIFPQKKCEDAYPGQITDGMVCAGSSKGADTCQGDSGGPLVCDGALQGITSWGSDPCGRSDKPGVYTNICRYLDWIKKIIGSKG

human kallikrein 6 (hK6) = human kallikrein 6 (hK6) (human, UniProt Q92876 22-244); test: cell-based or functional assay
human kallikrein 5 (hK5) = target: T8, human kallikrein 5 (hK5) (human, UniProt Q9Y337 67-293, limits assumed); test: cell-based or functional assay
T8 sequence (looked up): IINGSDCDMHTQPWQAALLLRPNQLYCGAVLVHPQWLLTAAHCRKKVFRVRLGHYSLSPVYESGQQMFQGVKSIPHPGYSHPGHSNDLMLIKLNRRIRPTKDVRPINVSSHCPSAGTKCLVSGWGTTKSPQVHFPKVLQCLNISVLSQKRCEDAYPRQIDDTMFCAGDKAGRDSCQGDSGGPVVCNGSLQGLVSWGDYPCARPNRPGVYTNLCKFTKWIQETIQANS

[16] = target: T1, human neutrophil elastase (HNE); test: cell-based or functional assay; remark: listed apart in the source
thrombin [17] = test: cell-based or functional assay
[18] = target: prostate specific antigen (PSA, hK3) (human, UniProt P07288 25-261); test: cell-based or functional assay
[19] = target: T6, human kallikrein 14 (hK14); test: cell-based or functional assay
[20] = target: T2, human plasma kallikrein (PK); test: cell-based or functional assay; remark: listed apart in the source
[21] = target: T3, human chymotrypsin (Chtr); test: cell-based or functional assay; remark: listed apart in the source
human kallikrein 2 (hK2) [22] = target: T4, human kallikrein 2 (hK2); test: cell-based or functional assay; remark: listed apart in the source
human kallikrein 4 (hK4) = human kallikrein 4 (hK4) (human, UniProt Q9Y5K2 31-254, limits assumed); test: cell-based or functional assay
[23] = target: T9, human kallikrein 13 (hK13) (human, UniProt Q9UKR3 26-277, limits assumed); test: cell-based or functional assay
T9 sequence (looked up): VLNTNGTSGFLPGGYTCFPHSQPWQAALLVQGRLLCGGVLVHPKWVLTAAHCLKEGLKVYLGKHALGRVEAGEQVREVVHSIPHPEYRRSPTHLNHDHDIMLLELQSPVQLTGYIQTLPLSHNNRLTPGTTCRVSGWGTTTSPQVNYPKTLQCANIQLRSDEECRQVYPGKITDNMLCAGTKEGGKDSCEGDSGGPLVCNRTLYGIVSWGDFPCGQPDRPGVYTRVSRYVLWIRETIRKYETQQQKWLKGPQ

[24] = target: T1, human neutrophil elastase (HNE); test: cell-based or functional assay; remark: listed apart in the source
[25] = target: T5, urokinase plasminogen activator (uPA); test: cell-based or functional assay; remark: listed apart in the source
thrombin [26] = test: cell-based or functional assay; remark: listed apart in the source
[27] = target: T6, human kallikrein 14 (hK14); test: cell-based or functional assay; remark: listed apart in the source
[28] = target: T2, human plasma kallikrein (PK); test: cell-based or functional assay; remark: listed apart in the source
[29] = target: T3, human chymotrypsin (Chtr); test: cell-based or functional assay; remark: listed apart in the source
[30] = target: T6, human kallikrein 14 (hK14); test: progress curve, pseudo-first order, 37 C
Experimental: The association rate constants for interactions of hK14, with different inhibitors were determined under pseudo-first order conditions using the progress curve method (Morrison and Walsh, 1988). Under these conditions, a fixed amount of enzyme (2 nM) was mixed with different concentrations of inhibitor (0-80 nM) and an excess of substrate (20 μM). Reactions were performed in reaction buffer (50 mM Tris pH 7.5, 150 mM NaCl, 0.05% Triton X-100, 0.01% BSA) at 37° C. for 45 min and the rate of product formation was measured using a FLₓ800 fluorescence 96-well microplate reader (Biotek, USA) Inhibition is considered to be irreversible over the course of reaction and the progression of enzyme activity is expressed as product formation (P), beginning at a rate (vz) and is inhibited over time (t) at a first-order rate (kobs), where the rate constant is only dependent on the inhibitor concentration.
Kinetic analysis of the inhibition of human hK14 by recombinant serpins were performed under pseudo-first-order conditions using an excess of inhibitor at various molar ratios of hK14. The time-dependent inactivation of the enzyme through reaction with serpin was monitored continuously, following the decrease in the rate of substrate turnover. Progress curves for reactions with different serpin concentrations were fitted to equation 1 to calculate values describing the rate constant (kobs). The association rate constants (kₐ) were determined from the slope of kobs values versus the concentration of the hK14 inhibitors.

[31] = target: T6, human kallikrein 14 (hK14); test: residual hK14 activity against [I0]/[E0]
Experimental: as §2

T2 sequence (P03952 20-638 limits assumed): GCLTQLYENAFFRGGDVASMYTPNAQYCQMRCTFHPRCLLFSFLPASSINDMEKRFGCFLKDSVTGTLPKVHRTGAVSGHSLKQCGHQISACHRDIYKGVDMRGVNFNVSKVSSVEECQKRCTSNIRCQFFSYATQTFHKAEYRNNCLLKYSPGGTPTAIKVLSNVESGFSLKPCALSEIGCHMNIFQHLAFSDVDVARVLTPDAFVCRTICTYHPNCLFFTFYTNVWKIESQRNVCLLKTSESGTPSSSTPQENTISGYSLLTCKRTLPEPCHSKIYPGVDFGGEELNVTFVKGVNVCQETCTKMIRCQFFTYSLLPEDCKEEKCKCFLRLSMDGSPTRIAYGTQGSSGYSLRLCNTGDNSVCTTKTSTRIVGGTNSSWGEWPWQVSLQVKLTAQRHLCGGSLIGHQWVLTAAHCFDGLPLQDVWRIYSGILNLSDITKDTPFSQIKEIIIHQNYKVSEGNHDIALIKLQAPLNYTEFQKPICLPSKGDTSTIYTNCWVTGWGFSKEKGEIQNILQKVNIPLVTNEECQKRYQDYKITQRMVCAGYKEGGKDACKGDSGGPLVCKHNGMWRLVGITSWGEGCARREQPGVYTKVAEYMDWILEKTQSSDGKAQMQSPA
T3 sequence (P17538 19-263): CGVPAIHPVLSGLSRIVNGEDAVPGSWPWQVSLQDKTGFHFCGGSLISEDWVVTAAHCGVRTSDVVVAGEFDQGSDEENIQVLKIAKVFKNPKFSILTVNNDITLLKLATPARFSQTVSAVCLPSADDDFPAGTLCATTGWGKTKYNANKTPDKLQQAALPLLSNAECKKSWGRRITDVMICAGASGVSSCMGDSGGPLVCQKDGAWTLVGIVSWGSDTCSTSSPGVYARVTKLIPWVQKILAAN
Sequence of human kallikrein 4 (hK4) (Q9Y5K2 31-254 limits assumed): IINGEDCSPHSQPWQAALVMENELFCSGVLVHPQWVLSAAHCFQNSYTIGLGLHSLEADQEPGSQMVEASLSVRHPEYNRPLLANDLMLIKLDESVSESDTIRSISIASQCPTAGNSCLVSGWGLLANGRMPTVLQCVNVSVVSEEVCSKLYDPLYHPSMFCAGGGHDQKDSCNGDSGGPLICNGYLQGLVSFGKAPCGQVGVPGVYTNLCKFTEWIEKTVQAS

SI (stoichiometry of inhibition) [1]: 334
SI (stoichiometry of inhibition) [2]: 150
SI (stoichiometry of inhibition) [3]: 134
SI (stoichiometry of inhibition) (human kallikrein 2 (hK2) [4]): 105
INHIBITION % (human kallikrein hK1): 0%
INHIBITION % [5]: 30%
INHIBITION % [6]: 0%
INHIBITION % [7]: 54%
INHIBITION % [8]: 66%
INHIBITION % (human kallikrein 2 (hK2) [9]): 95%
kon [10]: 158 M⁻¹ s⁻¹
kon [11]: 424 M⁻¹ s⁻¹
kon [12]: 905 M⁻¹ s⁻¹
kon (human kallikrein 2 (hK2) [13]): 1780 M⁻¹ s⁻¹
B1: rACT8.20 (other)
chain: MRGSHHHHHHSRHPNSPLDEENLTQENQDRGTHVDLGLASANVDFAFSLYKQLVLKAPDKNVIFSPLSISTALAFLSLGAHNTTLTEILKGLKFNLTETSEAEIHQSFQHLLRTLNQSSDELQLSMGNAMFVKEQLSLLDRFTEDAKRLYGSEAFATDFQDSAAAKKLINDYVKNGTRGKITDLIKDLDSQTMMVLVNYIFFKAKWEMPFDPQDTHQSRFYLSKKKWVMVPMMSLHHLTIPYFRDEELSCTVVELKYTGNASALFILPDQDKMEEVEAMLLPETLKRWRDSLEFREIGELYLPKFSISRDYNLNDILLQLGIEEAFTSKADLSGITGARNLAVSQVVHKAVLDVFEEGTEASAATAVKITLRSRAVETRTIVRFNRPFLMIIVPTDTQNIFFMSKVTNPKQA
notes: recombinant alpha-1-antichymotrypsin (serpin) variant, RSL substrate peptide LRSRA; N-terminal His tag, E. coli TG1; also called MD820; MD 820

kon [14]: 575000 M⁻¹ s⁻¹
SI (stoichiometry of inhibition) [15]: 1.2
Percentage inhibition (human kallikrein 8 (hK8)): 34%
Percentage inhibition (human kallikrein 6 (hK6)): 72%
Percentage inhibition (human kallikrein 5 (hK5)): 100%
Percentage inhibition [16]: 0%
Percentage inhibition (thrombin [17]): 0%
Percentage inhibition [18]: 0%
Percentage inhibition [19]: 100%
Percentage inhibition [20]: 36%
Percentage inhibition [21]: 14%
Percentage inhibition (human kallikrein 2 (hK2) [22]): 100%
Percentage inhibition (human kallikrein 4 (hK4)): 100%
Percentage inhibition [23]: 0%
% Inhibition [24]: 0%
% Inhibition [25]: 0%
% Inhibition (thrombin [26]): 0%
% Inhibition [27]: 100%
% Inhibition [28]: 36%
% Inhibition [29]: 14%
kon [30]: 575000 M⁻¹ s⁻¹
SI (stoichiometry of inhibition) [31]: 1.2
B2: ACTE8 (other)
chain: B1 chain with T370L, L371Q, S373A, R374I, A375L
notes: also called rACTE8
